Data on 13 substances can be found in article PMC8564539.

Common to all, as to test: AlphaScreen or HTRF; ALPHA: FLAG-tagged domain mixed with biotin-tagged domain (cell-free translation mixtures), streptavidin donor beads, anti-DYKDDDDK antibody with protein A acceptor beads; 100 mM Tris-HCl pH 8.0, 0.01% Tween 20, 1 mg/mL BSA; 25 °C, 24 h; median of duplicate reactions
A general note: In Alpha technology, singlet oxygen from a donor bead excites a nearby acceptor bead.

For assay [1], the target named is NLRC4_CARD (human) (UniProt Q9NPP4).
Sequence of NLRC4_CARD (human) (Q9NPP4 1-88): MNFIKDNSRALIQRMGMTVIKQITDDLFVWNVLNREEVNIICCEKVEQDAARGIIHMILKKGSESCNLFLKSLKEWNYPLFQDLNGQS
In assay [2] the target is CASP1_CARD (human) (UniProt P29466).
Sequence of CASP1_CARD (human) (P29466 1-91): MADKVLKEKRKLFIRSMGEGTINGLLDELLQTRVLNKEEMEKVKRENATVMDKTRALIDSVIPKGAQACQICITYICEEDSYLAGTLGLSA
The target of assay [3] is ASC_PYD-CARD (human) (UniProt Q9ULZ3).
Sequence of ASC_PYD-CARD (human) (Q9ULZ3 whole entry): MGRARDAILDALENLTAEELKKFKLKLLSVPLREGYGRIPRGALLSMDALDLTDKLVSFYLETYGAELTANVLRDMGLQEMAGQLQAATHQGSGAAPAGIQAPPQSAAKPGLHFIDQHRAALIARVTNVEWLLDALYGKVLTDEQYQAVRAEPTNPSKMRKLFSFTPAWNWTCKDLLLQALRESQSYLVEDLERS
Assay [4] addresses IRAK3_DD (human) (UniProt Q9Y616).
The target of assay [5] is FADD_DED-DD (human) (UniProt Q13158).
Sequence of FADD_DED-DD (human) (Q13158 whole entry): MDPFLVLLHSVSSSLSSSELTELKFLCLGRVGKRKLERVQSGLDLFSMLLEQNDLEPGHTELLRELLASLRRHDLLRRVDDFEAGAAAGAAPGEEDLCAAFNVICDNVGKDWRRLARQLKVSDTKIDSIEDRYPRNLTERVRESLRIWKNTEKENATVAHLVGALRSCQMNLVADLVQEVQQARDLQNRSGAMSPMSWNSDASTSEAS
Assay [6] concerns the target CASP2_CARD (human) (UniProt P42575).
The target of assay [7] is PYDC2_PYD (human) (UniProt Q56P42).
Sequence of PYDC2_PYD (human) (Q56P42 whole entry): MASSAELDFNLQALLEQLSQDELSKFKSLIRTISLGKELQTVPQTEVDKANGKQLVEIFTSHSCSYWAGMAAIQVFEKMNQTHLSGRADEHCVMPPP
In assay [8] the target is RIPK1_DD (human) (UniProt Q13546).
Sequence of RIPK1_DD (human) (Q13546 583-669): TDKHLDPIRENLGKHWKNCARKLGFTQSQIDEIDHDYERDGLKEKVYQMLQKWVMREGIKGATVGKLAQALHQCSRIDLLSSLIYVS
The target of assay [9] is CFLAR_DED1-DED2 (human) (UniProt O15519).
For assay [10], the target named is CASP8_DED1-DED2 (human) (UniProt Q14790).
The target in assay [11] is CASP10_DED1-DED2 (human) (UniProt Q92851).
Assay [12] concerns the target TNFRSF1A_DD (human) (UniProt P19438).
Assay [13] deals with TRADD_DD (human) (UniProt Q15628).
Sequence of TRADD_DD (human) (Q15628 179-289): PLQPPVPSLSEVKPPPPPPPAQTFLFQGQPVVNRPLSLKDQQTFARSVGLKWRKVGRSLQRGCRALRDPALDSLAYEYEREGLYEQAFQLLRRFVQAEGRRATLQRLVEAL
Assay [14] concerns the target CASP8_DED1 (human) (UniProt Q14790).
The target of assay [15] is DAPK1_DD (human) (UniProt P53355).
Sequence of DAPK1_DD (human) (P53355 1312-1396): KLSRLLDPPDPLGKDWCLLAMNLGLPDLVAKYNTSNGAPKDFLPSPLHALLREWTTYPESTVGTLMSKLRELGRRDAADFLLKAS

Sequence of IRAK3_DD (human) (Q9Y616 whole entry): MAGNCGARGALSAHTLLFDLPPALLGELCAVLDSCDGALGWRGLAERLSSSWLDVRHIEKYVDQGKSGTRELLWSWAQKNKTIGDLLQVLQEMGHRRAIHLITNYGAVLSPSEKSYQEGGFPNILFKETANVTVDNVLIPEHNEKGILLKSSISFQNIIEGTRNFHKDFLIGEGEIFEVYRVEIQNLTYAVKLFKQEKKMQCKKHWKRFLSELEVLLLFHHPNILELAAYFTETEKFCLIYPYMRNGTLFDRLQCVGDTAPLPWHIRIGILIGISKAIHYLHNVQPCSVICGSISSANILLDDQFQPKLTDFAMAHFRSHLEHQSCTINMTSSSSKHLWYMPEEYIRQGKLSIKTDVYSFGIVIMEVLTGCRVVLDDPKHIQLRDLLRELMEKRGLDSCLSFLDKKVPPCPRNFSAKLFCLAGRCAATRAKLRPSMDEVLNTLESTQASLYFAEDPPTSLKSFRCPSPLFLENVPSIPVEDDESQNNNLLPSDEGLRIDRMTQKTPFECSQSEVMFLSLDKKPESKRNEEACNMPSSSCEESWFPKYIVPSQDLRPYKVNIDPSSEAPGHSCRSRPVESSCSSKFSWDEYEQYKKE
Sequence of TNFRSF1A_DD (human) (P19438 356-441): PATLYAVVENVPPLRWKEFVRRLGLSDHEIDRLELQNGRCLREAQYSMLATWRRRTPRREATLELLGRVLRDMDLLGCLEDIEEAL
Sequence of CASP2_CARD (human) (P42575 32-121): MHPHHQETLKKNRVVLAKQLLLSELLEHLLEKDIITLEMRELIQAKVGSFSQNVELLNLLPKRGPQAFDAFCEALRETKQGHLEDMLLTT
Sequence of FADD_DED-DD (Q13158 whole entry, the tested form may be a part): as the sequence (Q13158 whole entry) above
Sequence of CRADD_CARD-DD (P78560 whole entry, the tested form may be a part): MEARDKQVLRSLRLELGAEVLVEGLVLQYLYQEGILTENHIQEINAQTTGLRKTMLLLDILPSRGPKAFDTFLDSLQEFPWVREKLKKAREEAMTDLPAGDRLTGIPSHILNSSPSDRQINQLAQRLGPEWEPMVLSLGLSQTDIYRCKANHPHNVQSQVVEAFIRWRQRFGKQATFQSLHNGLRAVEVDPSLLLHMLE
Sequence of CASP1_CARD (P29466 1-91): as the sequence (P29466 1-91) above

As for “ASC_PYD-CARD (from UniProt Q9ULZ3 1-195) (domain or fragment)”, the ALPHA signal (RLU) in assay [1] worked out at 1690 RLU; in assay [2] it was 1730 RLU.
Turning to “CASP1_CARD (from UniProt P29466 1-91) (domain or fragment)”, the ALPHA signal (RLU) in assay [3] is 4880 RLU.
Turning to “CASP8_DED1 (from UniProt Q14790 2-80) (domain or fragment)”, the ALPHA signal (RLU) in assay [4] was determined as 968 RLU.
Consider “CASP8_DED1-DED2 (from UniProt Q14790 1-177) (domain or fragment)”, for which the ALPHA signal (RLU) in assay [5] is 9380 RLU.
Same read-out and setting: then “CASP10_DED1-DED2 (from UniProt Q92851 19-187) (domain or fragment)”, with 10200 RLU.
As for “CRADD_CARD-DD (from UniProt P78560 1-199) (domain or fragment)”, in assay [6], the ALPHA signal (RLU) was 2420 RLU.
With “DAPK1_DD (from UniProt P53355 1312-1396) (domain or fragment)”, in assay [7], the ALPHA signal (RLU) stood at 3540 RLU.
“FADD_DED-DD (from UniProt Q13158 1-208) (domain or fragment)”: the ALPHA signal (RLU) worked out at 20000 RLU in assay [8]; 20100 RLU in [9]; 11000 RLU in assay [10]; 20700 RLU in assay [11]; 964 RLU in assay [12]; 39600 RLU in assay [13].
On to “IRAK3_DD (from UniProt Q9Y616 1-596) (domain or fragment)”, for which the ALPHA signal (RLU) in assay [14] came out at 1350 RLU.
Turning to “PYDC2_PYD (from UniProt Q56P42 1-97) (domain or fragment)”, in assay [15], the ALPHA signal (RLU) came out at 970 RLU.
In the case of “RIPK1_DD (from UniProt Q13546 583-669) (domain or fragment)”, in assay [5], the ALPHA signal (RLU) stood at 30600 RLU.
For the substance “TNFRSF1A_DD (from UniProt P19438 356-441) (domain or fragment)”, in [5], the ALPHA signal (RLU) came to 5570 RLU.
“TRADD_DD (from UniProt Q15628 179-289) (domain or fragment)”: in assay [5], the ALPHA signal (RLU) came out at 31700 RLU.
